According to publication PMC9035363 (Cell Reports, 2022):
Like-named read-outs stand apart in the source and are kept apart here.

Columns and labels:
Test in all cases: SPR
[1] = biological target: T1, SARS-CoV-2 S protein, soluble trimer (SARS-CoV-2, Wuhan reference …, UniProt P0DTC2, stabilised)
[2] = biological target: T2, SARS-CoV-2 D614G S protein, soluble trimer (SARS-CoV-2, Wuhan sequence with D614G, UniProt A0A6H1PJZ3, D614G)
[3] = biological target: T1, SARS-CoV-2 S protein, soluble trimer; remark: listed apart in the source
[4] = biological target: T2, SARS-CoV-2 D614G S protein, soluble …; remark: listed apart in the source

B1: LY-CoV1404 (bebtelovimab), full-length human IgG1 mAb (antibody, V domains shown)
VH: QITLKESGPTLVKPTQTLTLTCTFSGFSLSISGVGVGWLRQPPGKALEWLALIYWDDDKRYSPSLKSRLTISKDTSKNQVVLKMTNIDPVDTATYYCAHHSISTIFDHWGQGTLVTVSS
VL: QSALTQPASVSGSPGQSITISCTATSSDVGDYNYVSWYQQHPGKAPKLMIFEVSDRPSGISNRFSGSKSGNTASLTISGLQAEDEADYYCSSYTTSSAVFGGGTKLTVL
B1 showed a Kd [1] of 0.0745 nM, a Kd [2] of 0.0461 nM and a Kd [3] of 0.22 nM.

B2: LY-CoV1404 Fab (papain digestion) (Fab, V domains shown)
VH: B1 VH
VL: B1 VL
B2 was tested, and the Kd [4] was 0.79 nM.

B3: REGN10987 (imdevimab) (antibody, V domains shown)
VH: QVQLVESGGGVVQPGRSLRLSCAASGFTFSNYAMYWVRQAPGKGLEWVAVISYDGSNKYYADSVKGRFTISRDNSKNTLYLQMNSLRTEDTAVYYCASGSDYGDYLLVYWGQGTLVTVSS
VL: QSALTQPASVSGSPGQSITISCTGTSSDVGGYNYVSWYQQHPGKAPKLMIYDVSKRPSGVSNRFSGSKSGNTASLTISGLQSEDEADYYCNSLTSISTWVFGGGTKLTVL
B3: binds [3].
